Results taken from US20150125479A1.

Target: RSV fusion (F) glycoprotein (respiratory syncytial virus) (UniProt P12568)
Experiment: SPR (Biacore); the partner is not named in the row, RSV F protein is taken from the legend of FIG. 4

Work on “NUMAX™ (motavizumab), MEDI-524 Mab (antibody)” yielded a Kd of 4 pM.
